Measured values taken from paper PMC4451460.

Key:
[1] = biological target: truncated peptide HTT(1-14) (human) (UniProt P42858); experiment: ITC; isothermal calorimetry of C4 scFv with HTT(1-17) and truncated peptides; conditions not shown (Fig. S3)
[2] = biological target: HTT(1-17) peptide, the 17 N-terminal residues of huntingtin (human) (UniProt P42858); experiment: as above

fold decrease in binding affinity compared to HTT(1-17) [1]: 10 fold
Kd [2]: 50 nM
Substance: C4 single-chain Fv antibody (C4 scFv)
